Experiments:
Assay in all cases: cross-linking; 1 mM BMH (cysteine-specific) added to living transfected HEK293T cells in PBS/5 mM EDTA, 1 hr at room temperature in the dark, stopped with DTT; lysates on 3-8% Tris-Acetate gels, western blot with anti-NC antibody
[1] = target: CANC (N-terminally 3xHA-tagged CANC Gag fragment with the C-terminal SP2-p6 extension, from pCANC) (HIV-1 NL4-3)
[2] = target: GCN4pAA-SP1-NC (HIV-1 NL4-3)
[3] = target: GCN4pII-SP1-NC (HIV-1 NL4-3)
[4] = target: ccHex2-SP1-NC (HIV-1 NL4-3)

CANC (N-terminally 3xHA-tagged CANC Gag fragment with the C-terminal SP2-p6 extension, from pCANC) (domain or fragment)
stoichiometry N [1]: 8 to 10

GCN4pAA-SP1-NC
stoichiometry N [2]: < 6

GCN4pII-SP1-NC
stoichiometry N [3]: < 6

ccHex2-SP1-NC
stoichiometry N [4]: < 6

Reference: article PMC9908077
